B1: Ib_S2_P3E.1_K3.1_C3.1_H3.1_[G2C]_A3.1_F3.1_[T7A]_T3.1 (ssRNA)
RNA: UUUGAUUAAUAUGAUAUCGUUCUUUCUUCUAUAAAUUCUUUCUCGAUAUCAUAUUAAUCUUU
B2: Ib_S2_P3E.1_K3.1_C3.1_H3.1_[A4T]_A3.1_F3.1_[T7A]_T3.1 (ssRNA)
RNA: UUUGAUUAAUAUGAUAUCGUUCUUUCUUGUUUAAAUUCUUUCUCGAUAUCAUAUUAAUCUUU
B3: Ib_S2_P3E.1_K3.1_C3.1_H3.1_[T1C]_A3.1_F3.1_[A8G]_T3.1 (ssRNA)
RNA: UUUGAUUAAUAUGAUAUCGUUCUUUCUCGUAUAUGUUCUUUCUCGAUAUCAUAUUAAUCUUU
B4: Ib_S2_P3E.1_K3.1_C3.1_H3.1_[T1G]_A3.1_F3.1_[A8G]_T3.1 (ssRNA)
RNA: UUUGAUUAAUAUGAUAUCGUUCUUUCUGGUAUAUGUUCUUUCUCGAUAUCAUAUUAAUCUUU
B5: Ia_S2_P3E.1_K3.1_C3.1_H3.1_[T1A]_A3.1_F3.1_T3.1 (ssRNA)
RNA: UUUGAUUAAUAUGAUAUCGUUCUUUCUAGUAUAUAUUCUUUCUCGAUAUCAUAUUAAUCUUU
B6: Ib_S2_P3E.1_K3.1_C3.1_H3.1_[A4G]_A3.1_F3.1_[T7A]_T3.1 (ssRNA)
RNA: UUUGAUUAAUAUGAUAUCGUUCUUUCUUGUGUAAAUUCUUUCUCGAUAUCAUAUUAAUCUUU

This data set has as its target T1, PUF4 RNA-binding domain (Saccharomyces cerevisiae, UniProt P25339 537-888).
T1 sequence: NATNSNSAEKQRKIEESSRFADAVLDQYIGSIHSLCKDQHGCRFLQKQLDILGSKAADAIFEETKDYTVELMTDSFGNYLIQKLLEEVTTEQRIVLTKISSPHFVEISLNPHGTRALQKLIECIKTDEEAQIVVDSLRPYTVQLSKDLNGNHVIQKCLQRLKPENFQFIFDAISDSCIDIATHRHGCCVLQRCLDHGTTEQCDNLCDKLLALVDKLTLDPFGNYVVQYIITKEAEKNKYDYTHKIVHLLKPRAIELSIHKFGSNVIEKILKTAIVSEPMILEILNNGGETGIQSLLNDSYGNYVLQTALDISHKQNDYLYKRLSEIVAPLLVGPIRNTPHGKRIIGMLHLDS
Kind of data set: Mg; RNA-MaP; 20 mM Na-HEPES pH 7.4, 30 mM KOAc, 0.75 mM MgCl2, 0.1% Tween-20, 5% glycerol, 0.1 mg/mL BSA, 2 mM DTT; 25 C; 0.0125-409.6 nM protein. Particulars: tags: N-His6-TEV cleaved; C-SNAP kept, Cy3B-labelled; label: tethered on chip by stalled RNA polymerase.
As a reminder, the Kd is the constant that tells how readily two partners part at equilibrium. As to UCUCUUUGUAUAUUACCCUCUCUU (ssRNA) [Ie_S1_P4E.1_K4.1_C4.1_H4.1_A4.1_F4.1_[+9CCC]_T4.1], binding was put at a Kd of 1.11 nM.

The molecule UCUCUUUGUCCUAUUAUUAUCUCUU (ssRNA) [Ie_S1_P5E.1_K5.1_C5.1_H5.1_[+3CCT]_A5.1_F5.1_T5.1] displayed a Kd of 110 nM.

The molecule UCUCUUUGCUUAUUAUUAUCUCUU (ssRNA) [Ie_S1_P5E.1_K5.1_C5.1_H5.1_[+2CT]_A5.1_F5.1_T5.1] yielded a dissociation constant (Kd) of 2090 nM.

Molecule UCUCUUUGUUUAUUAUUAUCUCUU (ssRNA) [Ie_S1_P5E.1_K5.1_C5.1_H5.1_[+2TT]_A5.1_F5.1_T5.1] displayed a Kd of 8.58 nM.

For UCUCUUUUCUCUGUAUUAUUAUCUCUU (ssRNA) [Ie_S1_P5E.1_K5.1_C5.1_H5.1_[+1TCTCT]_A5.1_F5.1_T5.1], the equilibrium dissociation constant (Kd) came to 7.43 nM.

UCUCUUUGUAUAUUAUCCUCUCUU (ssRNA) [Ie_S1_P4E.1_K4.1_C4.1_H4.1_A4.1_F4.1_[+9TCC]_T4.1] gave a Kd of 0.48 nM.

Consider UCUCUUUCUUGUAUUAUUAUCUCUU (ssRNA) [Ie_S1_P5E.1_K5.1_C5.1_H5.1_[+1CTT]_A5.1_F5.1_T5.1], for which the Kd came out at 4.33 nM.

UCUCUUUCUGUAUUAUUAUCUCUU (ssRNA) [Ie_S1_P5E.1_K5.1_C5.1_H5.1_[+1CT]_A5.1_F5.1_T5.1] came in with a Kd of 3.96 nM.

The molecule UCUCUUUGUAUAUUACCUCUUCUCUU (ssRNA) [Ie_S1_P4E.1_K4.1_C4.1_H4.1_A4.1_F4.1_[+9CCTCT]_T4.1] had a Kd of 1.58 nM.

UCUCUUUCCUGUAUUAUUAUCUCUU (ssRNA) [Ie_S1_P5E.1_K5.1_C5.1_H5.1_[+1CCT]_A5.1_F5.1_T5.1]: binding was characterised by a dissociation constant (Kd) of 7.97 nM.

As to UCUCUUUGUAUAUUAUUCUCUCUU (ssRNA) [Ie_S1_P4E.1_K4.1_C4.1_H4.1_A4.1_F4.1_[+9TTC]_T4.1], the dissociation constant Kd was found to be 0.488 nM.

The molecule UCUCUUUGUAUAUUAUCUCUCUU (ssRNA) [Ie_S1_P4E.1_K4.1_C4.1_H4.1_A4.1_F4.1_[+9TC]_T4.1] showed a Kd of 0.435 nM.

Turning to UCUCUUUUCUGUAUUAUUAUCUCUU (ssRNA) [Ie_S1_P5E.1_K5.1_C5.1_H5.1_[+1TCT]_A5.1_F5.1_T5.1], the Kd turned out to be 4.9 nM.

Consider UCUCUUUGUAUAUUACUCUCUCUU (ssRNA) [Ie_S1_P4E.1_K4.1_C4.1_H4.1_A4.1_F4.1_[+9CTC]_T4.1], for which binding was put at a Kd of 1.09 nM.

Molecule UCUCUUUUUGUAUUAUUAUCUCUU (ssRNA) [Ie_S1_P5E.1_K5.1_C5.1_H5.1_[+1TT]_A5.1_F5.1_T5.1] showed a dissociation constant Kd of 7.17 nM.

With UCUCUUUGCUCUAUUAUUAUCUCUU (ssRNA) [Ie_S1_P5E.1_K5.1_C5.1_H5.1_[+2CTC]_A5.1_F5.1_T5.1], the Kd was above 2300 nM.

Regarding UCUCUUUUUUGUAUUAUUAUCUCUU (ssRNA) [Ie_S1_P5E.1_K5.1_C5.1_H5.1_[+1TTT]_A5.1_F5.1_T5.1], the equilibrium dissociation constant (Kd) came to 6.28 nM.

Turning to UCUCUUUGUAUAUUAUUCUCUU (ssRNA) [Ie_S1_P4E.1_K4.1_C4.1_H4.1_A4.1_F4.1_[+9T]_T4.1], the Kd was found to be 0.531 nM.

The molecule UCUCUUUCCUCGUAUUAUUAUCUCUU (ssRNA) [Ie_S1_P5E.1_K5.1_C5.1_H5.1_[+1CCTC]_A5.1_F5.1_T5.1] gave a Kd of 1350 nM.

In turn, UCUCUUUCCCGUAUUAUUAUCUCUU (ssRNA) [Ie_S1_P5E.1_K5.1_C5.1_H5.1_[+1CCC]_A5.1_F5.1_T5.1] yielded a dissociation constant Kd of 1340 nM.

On to UCUCUUUGUUAUUAUUAUCUCUU (ssRNA) [Ie_S1_P5E.1_K5.1_C5.1_H5.1_[+2T]_A5.1_F5.1_T5.1], for which the dissociation constant (Kd) worked out at 64.9 nM.

Consider UCUCUUUCCCUUGUAUUAUUAUCUCUU (ssRNA) [Ie_S1_P5E.1_K5.1_C5.1_H5.1_[+1CCCTT]_A5.1_F5.1_T5.1], for which the affinity, expressed as Kd, was 5.34 nM.

In turn, UCUCUUUGUAUAUUAUUCCUCUCUU (ssRNA) [Ie_S1_P4E.1_K4.1_C4.1_H4.1_A4.1_F4.1_[+9TTCC]_T4.1] returned a Kd of 0.476 nM.

UCUCUUUUCUCGUAUUAUUAUCUCUU (ssRNA) [Ie_S1_P5E.1_K5.1_C5.1_H5.1_[+1TCTC]_A5.1_F5.1_T5.1] showed a Kd of 1230 nM.

In turn, UCUCUUUGUAUAUUAUUUUCUCUU (ssRNA) [Ie_S1_P4E.1_K4.1_C4.1_H4.1_A4.1_F4.1_[+9TTT]_T4.1] showed a Kd of 0.453 nM.

Take UCUCUUUGUAUAUUACCUUCUCUU (ssRNA) [Ie_S1_P4E.1_K4.1_C4.1_H4.1_A4.1_F4.1_[+9CCT]_T4.1]: the equilibrium dissociation constant (Kd) was 0.795 nM.

As to UCUCUUUGUUCUAUUAUUAUCUCUU (ssRNA) [Ie_S1_P5E.1_K5.1_C5.1_H5.1_[+3TCT]_A5.1_F5.1_T5.1], binding was characterised by a dissociation constant (Kd) of 32.9 nM.

In turn, UCUCUUUGUAUAUUACUCUUCUCUU (ssRNA) [Ie_S1_P4E.1_K4.1_C4.1_H4.1_A4.1_F4.1_[+9CTCT]_T4.1] had an equilibrium dissociation constant (Kd) of 0.906 nM.

UCUCUUUCGUAUUAUUAUCUCUU (ssRNA) [Ie_S1_P5E.1_K5.1_C5.1_H5.1_[+1C]_A5.1_F5.1_T5.1] showed a dissociation constant Kd of 1320 nM.

In turn, UCUCUUUGUAUAUUACCCUUUCUCUU (ssRNA) [Ie_S1_P4E.1_K4.1_C4.1_H4.1_A4.1_F4.1_[+9CCCTT]_T4.1] had an equilibrium dissociation constant (Kd) of 0.925 nM.

The molecule B1 yielded a dissociation constant Kd above 2300 nM.

As for B2, the equilibrium dissociation constant (Kd) came to 1590 nM.

In turn, B3 registered a Kd above 2300 nM.

With B4, binding was put at a Kd of 1140 nM.

For the molecule B5, binding was put at a Kd of 931 nM.

B6 yielded a dissociation constant Kd of 35.3 nM.

UCUCUUUGUAUAUUAUUUCUCUU (ssRNA) [Ie_S1_P4E.1_K4.1_C4.1_H4.1_A4.1_F4.1_[+9TT]_T4.1]: binding was put at a Kd of 0.545 nM.

As for UCUCUUUCUCUCGUAUUAUUAUCUCUU (ssRNA) [Ie_S1_P5E.1_K5.1_C5.1_H5.1_[+1CTCTC]_A5.1_F5.1_T5.1], the affinity, expressed as Kd, was 1240 nM.

Regarding UCUCUUUUGUAUUAUUAUCUCUU (ssRNA) [Ie_S1_P5E.1_K5.1_C5.1_H5.1_[+1T]_A5.1_F5.1_T5.1], the dissociation constant (Kd) came to 5.92 nM.

As to UCUCUUUGUAUAUUACCUCUCUCUU (ssRNA) [Ie_S1_P4E.1_K4.1_C4.1_H4.1_A4.1_F4.1_[+9CCTC]_T4.1], the dissociation constant (Kd) stood at 0.706 nM.

With UCUCUUUGUAUAUUAUCUCUCUCUU (ssRNA) [Ie_S1_P4E.1_K4.1_C4.1_H4.1_A4.1_F4.1_[+9TCTC]_T4.1], binding was put at a Kd of 0.601 nM.

The molecule UCUCUUUUUCCGUAUUAUUAUCUCUU (ssRNA) [Ie_S1_P5E.1_K5.1_C5.1_H5.1_[+1TTCC]_A5.1_F5.1_T5.1] displayed a Kd above 2300 nM.

Regarding UCUCUUUGUAUAUUAUCUCUUCUCUU (ssRNA) [Ie_S1_P4E.1_K4.1_C4.1_H4.1_A4.1_F4.1_[+9TCTCT]_T4.1], the Kd turned out to be 0.824 nM.

Regarding UCUCUUUGUAUAUUACUCUCUCUCUU (ssRNA) [Ie_S1_P4E.1_K4.1_C4.1_H4.1_A4.1_F4.1_[+9CTCTC]_T4.1], the Kd worked out at 0.699 nM.

Take UCUCUUUGUAUAUUACUUCUCUU (ssRNA) [Ie_S1_P4E.1_K4.1_C4.1_H4.1_A4.1_F4.1_[+9CT]_T4.1]: the equilibrium dissociation constant (Kd) is 0.578 nM.

Molecule UCUCUUUGUAUAUUACCUCUCUU (ssRNA) [Ie_S1_P4E.1_K4.1_C4.1_H4.1_A4.1_F4.1_[+9CC]_T4.1] registered an equilibrium dissociation constant (Kd) of 0.729 nM.

UCUCUUUGUAUAUUAUCUUCUCUU (ssRNA) [Ie_S1_P4E.1_K4.1_C4.1_H4.1_A4.1_F4.1_[+9TCT]_T4.1] had a dissociation constant Kd of 0.632 nM.

UCUCUUUUUCGUAUUAUUAUCUCUU (ssRNA) [Ie_S1_P5E.1_K5.1_C5.1_H5.1_[+1TTC]_A5.1_F5.1_T5.1] displayed a dissociation constant (Kd) of 1620 nM.

The molecule UCUCUUUUCGUAUUAUUAUCUCUU (ssRNA) [Ie_S1_P5E.1_K5.1_C5.1_H5.1_[+1TC]_A5.1_F5.1_T5.1] displayed a Kd of 1240 nM.

UCUCUUUCUCGUAUUAUUAUCUCUU (ssRNA) [Ie_S1_P5E.1_K5.1_C5.1_H5.1_[+1CTC]_A5.1_F5.1_T5.1]: the Kd amounted to 1250 nM.

Take UCUCUUUCCUCUGUAUUAUUAUCUCUU (ssRNA) [Ie_S1_P5E.1_K5.1_C5.1_H5.1_[+1CCTCT]_A5.1_F5.1_T5.1]: binding was characterised by a dissociation constant (Kd) of 4.35 nM.

Regarding UCUCUUUGUCUAUUAUUAUCUCUU (ssRNA) [Ie_S1_P5E.1_K5.1_C5.1_H5.1_[+2TC]_A5.1_F5.1_T5.1], binding was characterised by a dissociation constant (Kd) of 18.6 nM.

Regarding UCUCUUUCCCUGUAUUAUUAUCUCUU (ssRNA) [Ie_S1_P5E.1_K5.1_C5.1_H5.1_[+1CCCT]_A5.1_F5.1_T5.1], binding was characterised by a dissociation constant (Kd) of 5.88 nM.

As to UCUCUUUGUAUAUUAUUCCUUCUCUU (ssRNA) [Ie_S1_P4E.1_K4.1_C4.1_H4.1_A4.1_F4.1_[+9TTCCT]_T4.1], the Kd worked out at 0.347 nM.

UCUCUUUCUCUGUAUUAUUAUCUCUU (ssRNA) [Ie_S1_P5E.1_K5.1_C5.1_H5.1_[+1CTCT]_A5.1_F5.1_T5.1] gave a Kd of 7.73 nM.

These data come from publication PMC9352680, “A comprehensive thermodynamic model for RNA binding by the Saccharomyces cerevisiae Pumilio protein PUF4”.
